These results are taken from publication PMC11461180, “Interaction with IP6K1 supports pyrophosphorylation of substrate proteins by the inositol pyrophosphate 5-InsP7” (Bioscience Reports, 2024).

This assay concerns the target V5-tagged IP6K1 (human, UniProt Q92551-1 1-441). In words: cell-based or functional assay.

V5-tagged IP6K1, sequence (Q92551 whole entry): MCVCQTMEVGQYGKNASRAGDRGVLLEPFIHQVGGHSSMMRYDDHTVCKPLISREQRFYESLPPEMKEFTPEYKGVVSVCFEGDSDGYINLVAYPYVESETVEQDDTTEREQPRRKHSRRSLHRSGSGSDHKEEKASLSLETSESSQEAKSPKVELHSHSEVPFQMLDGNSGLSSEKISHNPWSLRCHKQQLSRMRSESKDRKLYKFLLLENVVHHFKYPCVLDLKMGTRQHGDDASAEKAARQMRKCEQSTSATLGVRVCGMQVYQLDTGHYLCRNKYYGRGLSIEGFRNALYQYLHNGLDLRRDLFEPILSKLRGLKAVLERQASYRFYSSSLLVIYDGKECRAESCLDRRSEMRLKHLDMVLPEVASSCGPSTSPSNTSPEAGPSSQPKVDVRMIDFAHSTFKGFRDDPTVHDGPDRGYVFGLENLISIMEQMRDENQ

B1: myc epitope-tagged AP3B1 (natural protein, human, UniProt O00203-1 1-1094, looked up)
chain: MSSNSFPYNEQSGGGEATELGQEATSTISPSGAFGLFSSDLKKNEDLKQMLESNKDSAKLDAMKRIVGMIAKGKNASELFPAVVKNVASKNIEIKKLVYVYLVRYAEEQQDLALLSISTFQRALKDPNQLIRASALRVLSSIRVPIIVPIMMLAIKEASADLSPYVRKNAAHAIQKLYSLDPEQKEMLIEVIEKLLKDKSTLVAGSVVMAFEEVCPDRIDLIHKNYRKLCNLLVDVEEWGQVVIIHMLTRYARTQFVSPWKEGDELEDNGKNFYESDDDQKEKTDKKKKPYTMDPDHRLLIRNTKPLLQSRNAAVVMAVAQLYWHISPKSEAGIISKSLVRLLRSNREVQYIVLQNIATMSIQRKGMFEPYLKSFYVRSTDPTMIKTLKLEILTNLANEANISTLLREFQTYVKSQDKQFAAATIQTIGRCATNILEVTDTCLNGLVCLLSNRDEIVVAESVVVIKKLLQMQPAQHGEIIKHMAKLLDSITVPVARASILWLIGENCERVPKIAPDVLRKMAKSFTSEDDLVKLQILNLGAKLYLTNSKQTKLLTQYILNLGKYDQNYDIRDRTRFIRQLIVPNVKSGALSKYAKKIFLAQKPAPLLESPFKDRDHFQLGTLSHTLNIKATGYLELSNWPEVAPDPSVRNVEVIELAKEWTPAGKAKQENSAKKFYSESEEEEDSSDSSSDSESESGSESGEQGESGEEGDSNEDSSEDSSSEQDSESGRESGLENKRTAKRNSKAKGKSDSEDGEKENEKSKTSDSSNDESSSIEDSSSDSESESEPESESESRRVTKEKEKKTKQDRTPLTKDVSLLDLDDFNPVSTPVALPTPALSPSLMADLEGLHLSTSSSVISVSTPAFVPTKTHVLLHRMSGKGLAAHYFFPRQPCIFGDKMVSIQITLNNTTDRKIENIHIGEKKLPIGMKMHVFNPIDSLEPEGSITVSMGIDFCDSTQTASFQLCTKDDCFNVNIQPPVGELLLPVAMSEKDFKKEQGVLTGMNETSAVIIAAPQNFTPSVIFQKVVNVANVGAVPSGQDNIHRFAAKTVHSGSLMLVTVELKEGSTAQLIINTEKTVIGSVLLRELKPVLSQG
Turning to B1, the “back-pyrophosphorylation of myc-AP3B1 by 5[β-32P]InsP7 after immunoprecipitation from IP6K1 knockout HEK293T cells co-expressing IP6K1-V5 and HA-CK2α, with SFB-IDR-1 against without” value is approximately 2 fold.
